T1: monkey LAG-3 on cells (HEK293-cLAG-3 stable cell line) (monkey, UniProt P18627 24-525 (human entry))
T1 construct: Full-length monkey (Chinese monkey) LAG-3 gene expressed on HEK293 cells
T1 chain: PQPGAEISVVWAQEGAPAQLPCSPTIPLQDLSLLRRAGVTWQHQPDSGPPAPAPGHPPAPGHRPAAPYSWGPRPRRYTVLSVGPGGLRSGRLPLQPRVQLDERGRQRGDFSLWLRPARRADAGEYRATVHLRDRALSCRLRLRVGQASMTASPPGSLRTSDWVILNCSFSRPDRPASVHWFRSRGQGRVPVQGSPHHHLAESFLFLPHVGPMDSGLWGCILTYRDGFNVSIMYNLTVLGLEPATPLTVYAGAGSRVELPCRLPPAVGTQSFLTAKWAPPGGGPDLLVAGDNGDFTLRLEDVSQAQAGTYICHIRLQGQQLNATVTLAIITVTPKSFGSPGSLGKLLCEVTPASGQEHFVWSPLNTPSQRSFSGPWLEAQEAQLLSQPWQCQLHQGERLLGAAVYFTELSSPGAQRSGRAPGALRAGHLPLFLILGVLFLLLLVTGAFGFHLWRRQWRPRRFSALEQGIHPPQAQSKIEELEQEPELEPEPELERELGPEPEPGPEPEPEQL

T2: human LAG-3 protein with hFc tag (hLAG-3-hFc protein) (human, UniProt P18627 23-450)
T2 construct: also called immunogen 1; LAG-3 extracellular domain protein; not shown: human IgG Fc fragment (hFc) of the pCpC vector
T2 sequence: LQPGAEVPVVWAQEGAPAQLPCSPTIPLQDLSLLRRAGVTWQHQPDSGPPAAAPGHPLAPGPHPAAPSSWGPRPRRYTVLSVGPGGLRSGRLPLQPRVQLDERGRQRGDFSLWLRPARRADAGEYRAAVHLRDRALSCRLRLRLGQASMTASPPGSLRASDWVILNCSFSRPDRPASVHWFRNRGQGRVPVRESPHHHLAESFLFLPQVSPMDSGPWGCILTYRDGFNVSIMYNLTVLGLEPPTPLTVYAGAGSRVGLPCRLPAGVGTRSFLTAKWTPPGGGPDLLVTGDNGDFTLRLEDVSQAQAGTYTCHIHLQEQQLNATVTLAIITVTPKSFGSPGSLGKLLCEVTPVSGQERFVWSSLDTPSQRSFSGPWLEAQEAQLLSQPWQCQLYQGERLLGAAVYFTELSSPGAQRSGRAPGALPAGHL

T3: hFc tagged monkey LAG-3 protein (cLAG-3-hFc protein) (monkey; human)
T3 construct: Made in HEK293 cells; also called monkey LAG-3 extracellular domain protein; not shown: human IgG Fc fragment (hFc) of the pCpC vector
T3 chain: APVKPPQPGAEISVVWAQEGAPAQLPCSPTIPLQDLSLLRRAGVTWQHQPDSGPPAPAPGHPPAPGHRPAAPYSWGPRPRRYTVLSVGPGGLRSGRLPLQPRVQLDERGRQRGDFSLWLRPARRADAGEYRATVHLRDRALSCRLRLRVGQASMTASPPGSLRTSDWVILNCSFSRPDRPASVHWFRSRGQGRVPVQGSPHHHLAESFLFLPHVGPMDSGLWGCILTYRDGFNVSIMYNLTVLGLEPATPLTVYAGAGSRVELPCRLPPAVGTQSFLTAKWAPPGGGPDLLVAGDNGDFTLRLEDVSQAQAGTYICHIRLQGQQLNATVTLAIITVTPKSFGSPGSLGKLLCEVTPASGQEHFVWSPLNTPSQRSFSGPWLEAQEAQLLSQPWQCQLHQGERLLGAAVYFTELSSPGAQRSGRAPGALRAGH

B1: 556F6B8 mouse-human chimeric antibody (antibody, V domains shown)
VH: RVQLKQSGPGLVQPSQSLSITCTVSGFSLIKYGVHWVRQSPGEGLEWLGVIWRGGITDYNAAFMSRLSITKDNSKSQVFFKMNSLQADDTAIYYCAKWDGPLAMDYWGQGTSVTVSS
VL: DIVMTQSHKFLSTSVGDRVSITCKASQDVGTTVAWYQQKPGQSPKLLIYWASTRHTGVPDRFTGSGSGTDFTLTISNVQSEDLADYFCQQYSSYPYTFGGGTKLEIK
notes: also called mAb123-556F6B8; 556F8B8
B2: 556F6B8 (LAG-3 mouse-human chimeric antibody) (antibody, V domains shown)
VH: RVQLKQSGPGLVQPSQSLSITCTVSGFSLIKYGVHWVRQSPGEGLEWLGVIWRGGITDYNAAFMSRLSITKDNSKSQVFFKMNSLQADDTAIYYCAKWDGPLAMDYWGQGTSVTVSS
VL: DIVMTQSHKFLSTSVGDRVSITCKASQDVGTTVAWYQQKPGQSPKLLIYWASTRHTGVPDRFTGSGSGTDFTLTISNVQSEDLADYFCQQYSSYPYTFGGGTKLEIK
notes: also called 556F8B8
B3: 105F1E10 mouse-human chimeric antibody (antibody, V domains shown)
VH: EVQLQQSGPELVKPGASVKMSCRASGYTFTDFKMHWMKQSHGKSLEWIGYIAPNNGGTAYNQKFRGKATLTVNESSNTAYMELRSLTSEDSAVYYCVDWDDVDYWGQGTTLTVSS
VL: DIKMTQSPSSMYASLGERVTITCKASQDINSYLSWFQQKSGKSPKTLIYRANRLVDGVPSRFSGSGSGQDYSLTISSLEYEDMGIYYCLQYVEFPLTFGAGTKLELK
notes: also called mAb009-105F1E10
B4: 405B8H3 mouse-human chimeric antibody (antibody, V domains shown)
VH: QVQLQQSGAELVRPGASVTLSCKASGYTFTDYEMHWVKQTPVHGLEWIGATDPETGNSAYNQKFKGKAIMTADKSSSTAYMELRSLTSEDSAVYYCISTGWNDWGQGTSLTVSS
VL: DIKMTQSPSSMYASLGERVTITCKASQDINSYLSWFQQKPGKSPKTLIYRADRLLDGVPSRFSGSGSGQDYSLTISSLEYGDMGIYYCLQYDEFPYTFGGGTKLEIK
notes: also called mAb103-405B8H3
B5: 105F1E10 (LAG-3 mouse-human chimeric antibody) (antibody, V domains shown)
VH: EVQLQQSGPELVKPGASVKMSCRASGYTFTDFKMHWMKQSHGKSLEWIGYIAPNNGGTAYNQKFRGKATLTVNESSNTAYMELRSLTSEDSAVYYCVDWDDVDYWGQGTTLTVSS
VL: DIKMTQSPSSMYASLGERVTITCKASQDINSYLSWFQQKSGKSPKTLIYRANRLVDGVPSRFSGSGSGQDYSLTISSLEYEDMGIYYCLQYVEFPLTFGAGTKLELK
B6: 405B8H3 (LAG-3 mouse-human chimeric antibody) (antibody, V domains shown)
VH: QVQLQQSGAELVRPGASVTLSCKASGYTFTDYEMHWVKQTPVHGLEWIGATDPETGNSAYNQKFKGKAIMTADKSSSTAYMELRSLTSEDSAVYYCISTGWNDWGQGTSLTVSS
VL: DIKMTQSPSSMYASLGERVTITCKASQDINSYLSWFQQKPGKSPKTLIYRADRLLDGVPSRFSGSGSGQDYSLTISSLEYGDMGIYYCLQYDEFPYTFGGGTKLEIK
notes: also called mouse-human chimeric antibody 405B8H3
B7: 409B11E12 mouse-human chimeric antibody (antibody, V domains shown)
VH: QVQLQQSGAELVRPGASVTLSCKASGYTFTDYEMHWVKQTTVHGLEWIGATDPETSYSAYNQKFKGKAILTADKSSSTAYMELRSLTSEDSAVYYCIATGWNDWGQGTSLTVSS
VL: DLKMTQSPSSMYASLGERVTITCKASQDINSYLSWFQQKPGKSPKTLIYRANRLLDGVPSRFSGSGSGQDYSLTISSLEYEDMGIYYCLQYDEFPYTFGGGTKLEIK
notes: also called mAb104-409B11E12
B8: 409D4E10 (LAG-3 mouse-human chimeric antibody) (antibody, V domains shown)
VH: QVQLQQSGAELVRPGASVTLSCKASGNTFTDYEMHWVKQTPVHGLEWIGATDPETDNTAYNQKFKGKAILTTDKSSSTAYMELRSLTSEDSAVYYCITSGWNDWGQGTSLTVSS
VL: DIKMTQSPSSMYASLGERVTITCKASQDINSYLSWFQQKPGKSPKTLIYRANRLLDGVPSRFSGSGSGQDYSLTISSLEYEDMGIYYCLQYNEFPYTFGGGTKLEIK
B9: 409B11E12 (LAG-3 mouse-human chimeric antibody) (antibody, V domains shown)
VH: QVQLQQSGAELVRPGASVTLSCKASGYTFTDYEMHWVKQTTVHGLEWIGATDPETSYSAYNQKFKGKAILTADKSSSTAYMELRSLTSEDSAVYYCIATGWNDWGQGTSLTVSS
VL: DLKMTQSPSSMYASLGERVTITCKASQDINSYLSWFQQKPGKSPKTLIYRANRLLDGVPSRFSGSGSGQDYSLTISSLEYEDMGIYYCLQYDEFPYTFGGGTKLEIK
B10: 409D4E10 mouse-human chimeric antibody (antibody, V domains shown)
VH: QVQLQQSGAELVRPGASVTLSCKASGNTFTDYEMHWVKQTPVHGLEWIGATDPETDNTAYNQKFKGKAILTTDKSSSTAYMELRSLTSEDSAVYYCITSGWNDWGQGTSLTVSS
VL: DIKMTQSPSSMYASLGERVTITCKASQDINSYLSWFQQKPGKSPKTLIYRANRLLDGVPSRFSGSGSGQDYSLTISSLEYEDMGIYYCLQYNEFPYTFGGGTKLEIK
notes: also called mAb112-409D4E10

What was measured:
[1] = target: T1, monkey LAG-3 on cells (HEK293-cLAG-3 …); test: FACS, HEK293-cLAG-3, antibody 200.000 nM
Source text: (§1) The pIRES plasmid with the monkey-derived full-length gene was transfected into the HEK293 cell line to construct a HEK293 stable cell line containing monkey LAG-3 (herein referred to as HEK293-cLAG-3 stable cell line). The HEK293-hLAG-3 stable cell line and HEK293-cLAG-3 stable cell line were expanded in a T-75 cell culture flask to a 90% confluence. The medium was aspirated, and the cells were washed with HBSS (Hanks' Balanced Salt Solution) 1-2 times, then treated with a enzyme-free cell dissociation fluid (Versene solution: Life technology) and the cells were collected. The cells were washed with HBSS buffer for 1-2 times. After counted, the cells were diluted with HBSS to 1-2×10⁶ cells per ml, added with 1% goat serum blocking solution, incubated on ice for 20-30 minutes, and then washed with HBSS for 2 times by centrifugation. The collected cells were suspended in the FACS buffer (HBSS+1% BSA) to 2×10⁶ cells/ml, added as 100 microliters per well to a 96-well FACS reaction plate, added with 100 microliters per well of the antibody sample to be tested, incubated on ice for 1-2 hours. The plate was washed twice with the FACS buffer by centrifugation, added with 100 microliters of fluorescent (Alexa 488)-labeled secondary antibodies per well, and incubated on ice for 0.5-1.0 hours. The plate was washed 2-3 times with FACS buffer by centrifugation, added with 100 μl fixative solution (4% Paraformaldehyde) per well to suspend the cells. 5-10 minutes later, it was washed 1-2 times with FACS buffer by centrifugation. The cells were suspended with 100 microliters of FACS buffer, FACS (FACSCalibur, BD) was used for detection and the results were analyzed.

[2] = target: T1, monkey LAG-3 on cells (HEK293-cLAG-3 …); test: FACS, HEK293-cLAG-3, antibody 0.320 nM
Source text: as §1

[3] = target: T2, human LAG-3 protein with hFc tag …; test: ELISA, hLAG-3-hFc coated; 0.0001 nM
Protocol: (§2) The plate was sealed with plastic film and incubated overnight at 4° C. The plate was washed 2 times with the plate washing solution (PBS+0.01% Tween20) on the next day, and added with the blocking solution (PBS+0.01% Tween20+1% BSA) and blocked at room temperature for 1-2 hours. The blocking solution was poured out, and the plate was added with 50-100 μl of the antibody sample to be tested to each well, incubated at 37° C. for 1-2 hours, and washed 2-3 times with a plate washing solution (PBS+0.01% Tween20). HRP (horseradish peroxidase) labeled secondary antibody was added, and the plate was incubated at 37° C. for 1-2 hours, and washed 2-3 times with a plate washing solution (PBS+0.01% Tween20). 100 μl of TMB substrate was added to each well. After incubated at room temperature for 15-30 minutes, the plate was added with 100 μl of stop solution (1.0N HCl) to each well.

[4] = target: T3, hFc tagged monkey LAG-3 protein …; test: ELISA, cLAG-3-hFc coated; 0.0000 nM
Protocol: as §2

[5] = target: T3, hFc tagged monkey LAG-3 protein …; test: ELISA, cLAG-3-hFc coated; 0.0667 nM
Protocol: as §2

Binder | Mean fluorescence intensity [1] | Mean fluorescence intensity [2] | OD450 [3] [OD450] | OD450 [4] [OD450] | OD450 [5] [OD450]
B1 | 90.5 | 8.37 | – | – | –
B2 | – | – | 0.13 | 0.19 | 2.43
B3 | 94.5 | 5.72 | – | – | –
B4 | 108 | 10.3 | – | – | –
B5 | – | – | 0.13 | 0.15 | 1
B6 | – | – | 0.11 | 0.15 | 1.96
B7 | 114 | 11.6 | – | – | –
B8 | – | – | 0.13 | 0.18 | 3.05
B9 | – | – | 0.12 | 0.14 | 1.91
B10 | 103 | 8.96 | – | – | –
